In patent publication US20110118131A1 (published 2011):

molecular target: T1, IL-1beta (UniProt P01584 117-269); experiment: Biacore
T1 construct: also called IL-1β

Row | binding result | fold difference in affinity vs parental [fold] | Binder
1 | no binding |  | XPA23 Fab, heavy chain Y101D (Fab, V domains shown) VH: EVQLLESGGGLVQPGGSLRLSCAASGFTFSKYFMFWVRQAPGKGLEWVSVISPSGGMTRYADSVKGRFTISRDNSKNTLYLQMNSLRAEDTAVYYCARVGDGGNSDYWGQGTLVTVSS VL: DIQMTQSPSSVSASVGDRLTIICRASQDINRWLAWYQQTPGNAPKLLIHSATSLQSGVPSRFSGSGSGTDFTLTINSLQPEDFATYYCQQADSFPLTFGGGTKVEIK
2 |  | 0.82 | XPA23 Fab, heavy chain Y107K (Fab, V domains shown) VH: EVQLLESGGGLVQPGGSLRLSCAASGFTFSKYFMFWVRQAPGKGLEWVSVISPSGGMTRYADSVKGRFTISRDNSKNTLYLQMNSLRAEDTAVYYCARVGYGGNSDKWGQGTLVTVSS VL: DIQMTQSPSSVSASVGDRLTIICRASQDINRWLAWYQQTPGNAPKLLIHSATSLQSGVPSRFSGSGSGTDFTLTINSLQPEDFATYYCQQADSFPLTFGGGTKVEIK
3 |  | 0.87 | XPA23 Fab, heavy chain Y107Q (Fab, V domains shown) VH: EVQLLESGGGLVQPGGSLRLSCAASGFTFSKYFMFWVRQAPGKGLEWVSVISPSGGMTRYADSVKGRFTISRDNSKNTLYLQMNSLRAEDTAVYYCARVGYGGNSDQWGQGTLVTVSS VL: DIQMTQSPSSVSASVGDRLTIICRASQDINRWLAWYQQTPGNAPKLLIHSATSLQSGVPSRFSGSGSGTDFTLTINSLQPEDFATYYCQQADSFPLTFGGGTKVEIK
4 |  | 0.85 | XPA23 Fab, heavy chain Y101F (Fab, V domains shown) VH: EVQLLESGGGLVQPGGSLRLSCAASGFTFSKYFMFWVRQAPGKGLEWVSVISPSGGMTRYADSVKGRFTISRDNSKNTLYLQMNSLRAEDTAVYYCARVGFGGNSDYWGQGTLVTVSS VL: DIQMTQSPSSVSASVGDRLTIICRASQDINRWLAWYQQTPGNAPKLLIHSATSLQSGVPSRFSGSGSGTDFTLTINSLQPEDFATYYCQQADSFPLTFGGGTKVEIK
5 |  | 0.9 | XPA23 Fab, heavy chain Y107F (Fab, V domains shown) VH: EVQLLESGGGLVQPGGSLRLSCAASGFTFSKYFMFWVRQAPGKGLEWVSVISPSGGMTRYADSVKGRFTISRDNSKNTLYLQMNSLRAEDTAVYYCARVGYGGNSDFWGQGTLVTVSS VL: DIQMTQSPSSVSASVGDRLTIICRASQDINRWLAWYQQTPGNAPKLLIHSATSLQSGVPSRFSGSGSGTDFTLTINSLQPEDFATYYCQQADSFPLTFGGGTKVEIK
6 |  | 0.06 | XPA23 Fab, heavy chain Y101N (Fab, V domains shown) VH: EVQLLESGGGLVQPGGSLRLSCAASGFTFSKYFMFWVRQAPGKGLEWVSVISPSGGMTRYADSVKGRFTISRDNSKNTLYLQMNSLRAEDTAVYYCARVGNGGNSDYWGQGTLVTVSS VL: DIQMTQSPSSVSASVGDRLTIICRASQDINRWLAWYQQTPGNAPKLLIHSATSLQSGVPSRFSGSGSGTDFTLTINSLQPEDFATYYCQQADSFPLTFGGGTKVEIK
7 | no binding |  | XPA23 Fab, heavy chain Y107H (Fab, V domains shown) VH: EVQLLESGGGLVQPGGSLRLSCAASGFTFSKYFMFWVRQAPGKGLEWVSVISPSGGMTRYADSVKGRFTISRDNSKNTLYLQMNSLRAEDTAVYYCARVGYGGNSDHWGQGTLVTVSS VL: DIQMTQSPSSVSASVGDRLTIICRASQDINRWLAWYQQTPGNAPKLLIHSATSLQSGVPSRFSGSGSGTDFTLTINSLQPEDFATYYCQQADSFPLTFGGGTKVEIK
8 |  | 0.85 | XPA23 Fab, heavy chain Y107D (Fab, V domains shown) VH: EVQLLESGGGLVQPGGSLRLSCAASGFTFSKYFMFWVRQAPGKGLEWVSVISPSGGMTRYADSVKGRFTISRDNSKNTLYLQMNSLRAEDTAVYYCARVGYGGNSDDWGQGTLVTVSS VL: DIQMTQSPSSVSASVGDRLTIICRASQDINRWLAWYQQTPGNAPKLLIHSATSLQSGVPSRFSGSGSGTDFTLTINSLQPEDFATYYCQQADSFPLTFGGGTKVEIK
9 |  | 0.81 | XPA23 Fab, heavy chain Y101W (Fab, V domains shown) VH: EVQLLESGGGLVQPGGSLRLSCAASGFTFSKYFMFWVRQAPGKGLEWVSVISPSGGMTRYADSVKGRFTISRDNSKNTLYLQMNSLRAEDTAVYYCARVGWGGNSDYWGQGTLVTVSS VL: DIQMTQSPSSVSASVGDRLTIICRASQDINRWLAWYQQTPGNAPKLLIHSATSLQSGVPSRFSGSGSGTDFTLTINSLQPEDFATYYCQQADSFPLTFGGGTKVEIK
10 |  | 0.04 | XPA23 Fab, heavy chain Y101H (Fab, V domains shown) VH: EVQLLESGGGLVQPGGSLRLSCAASGFTFSKYFMFWVRQAPGKGLEWVSVISPSGGMTRYADSVKGRFTISRDNSKNTLYLQMNSLRAEDTAVYYCARVGHGGNSDYWGQGTLVTVSS VL: DIQMTQSPSSVSASVGDRLTIICRASQDINRWLAWYQQTPGNAPKLLIHSATSLQSGVPSRFSGSGSGTDFTLTINSLQPEDFATYYCQQADSFPLTFGGGTKVEIK
11 |  | 0.06 | XPA23 Fab, heavy chain Y101Q (Fab, V domains shown) VH: EVQLLESGGGLVQPGGSLRLSCAASGFTFSKYFMFWVRQAPGKGLEWVSVISPSGGMTRYADSVKGRFTISRDNSKNTLYLQMNSLRAEDTAVYYCARVGQGGNSDYWGQGTLVTVSS VL: DIQMTQSPSSVSASVGDRLTIICRASQDINRWLAWYQQTPGNAPKLLIHSATSLQSGVPSRFSGSGSGTDFTLTINSLQPEDFATYYCQQADSFPLTFGGGTKVEIK
12 |  | 0.9 | XPA23 Fab, heavy chain Y107E (Fab, V domains shown) VH: EVQLLESGGGLVQPGGSLRLSCAASGFTFSKYFMFWVRQAPGKGLEWVSVISPSGGMTRYADSVKGRFTISRDNSKNTLYLQMNSLRAEDTAVYYCARVGYGGNSDEWGQGTLVTVSS VL: DIQMTQSPSSVSASVGDRLTIICRASQDINRWLAWYQQTPGNAPKLLIHSATSLQSGVPSRFSGSGSGTDFTLTINSLQPEDFATYYCQQADSFPLTFGGGTKVEIK
13 | no binding |  | XPA23 Fab, heavy chain Y107N (Fab, V domains shown) VH: EVQLLESGGGLVQPGGSLRLSCAASGFTFSKYFMFWVRQAPGKGLEWVSVISPSGGMTRYADSVKGRFTISRDNSKNTLYLQMNSLRAEDTAVYYCARVGYGGNSDNWGQGTLVTVSS VL: DIQMTQSPSSVSASVGDRLTIICRASQDINRWLAWYQQTPGNAPKLLIHSATSLQSGVPSRFSGSGSGTDFTLTINSLQPEDFATYYCQQADSFPLTFGGGTKVEIK
14 |  | 0.03 | XPA23 Fab, heavy chain Y101E (Fab, V domains shown) VH: EVQLLESGGGLVQPGGSLRLSCAASGFTFSKYFMFWVRQAPGKGLEWVSVISPSGGMTRYADSVKGRFTISRDNSKNTLYLQMNSLRAEDTAVYYCARVGEGGNSDYWGQGTLVTVSS VL: DIQMTQSPSSVSASVGDRLTIICRASQDINRWLAWYQQTPGNAPKLLIHSATSLQSGVPSRFSGSGSGTDFTLTINSLQPEDFATYYCQQADSFPLTFGGGTKVEIK
15 |  | 0.85 | XPA23 Fab, heavy chain Y101R (Fab, V domains shown) VH: EVQLLESGGGLVQPGGSLRLSCAASGFTFSKYFMFWVRQAPGKGLEWVSVISPSGGMTRYADSVKGRFTISRDNSKNTLYLQMNSLRAEDTAVYYCARVGRGGNSDYWGQGTLVTVSS VL: DIQMTQSPSSVSASVGDRLTIICRASQDINRWLAWYQQTPGNAPKLLIHSATSLQSGVPSRFSGSGSGTDFTLTINSLQPEDFATYYCQQADSFPLTFGGGTKVEIK
